According to patent US20150344570A1 (published 2015):

T1: FcγRIIa R (human, UniProt P12318 34-217)
T1 construct: extracellular domain; also called FcgRIIa R type; 2aR
T1 sequence (looked up): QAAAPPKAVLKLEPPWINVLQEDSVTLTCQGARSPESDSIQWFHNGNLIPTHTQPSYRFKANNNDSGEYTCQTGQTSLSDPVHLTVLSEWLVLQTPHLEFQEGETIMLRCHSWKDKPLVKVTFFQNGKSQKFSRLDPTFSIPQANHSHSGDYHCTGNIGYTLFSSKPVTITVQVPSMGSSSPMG

T2: FcγRIIb (human, UniProt P31994 43-217)
T2 construct: extracellular domain; also called FcgRIIb; 2b
T2 sequence (looked up): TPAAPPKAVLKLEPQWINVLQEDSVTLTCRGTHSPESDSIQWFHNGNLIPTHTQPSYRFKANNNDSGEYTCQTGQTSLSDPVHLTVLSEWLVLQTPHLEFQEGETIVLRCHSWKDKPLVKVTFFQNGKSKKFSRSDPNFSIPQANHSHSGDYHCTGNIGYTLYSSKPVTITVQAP

B1: GpH7-A5/GpH7-B3 variant E269_19Q/GpL16-k0 (antibody, human IgG1, kappa)
heavy 1: not shown
heavy 2: not shown
light: DIVMTQSPLSLPVTPGEPASISCQASESLVHSNRNTYLHWYLQKPGQSPQLLIYKVSNRFSGVPDRFSGSGSGTDFTLKISRVEAEDVGVYYCSQNTHVPPTFGQGTKVEIERTVAAPSVFIFPPSDEQLKSGTASVVCLLNNFYPREAKVQWKVDNALQSGNSQESVTEQDSKDSTYSLSSTLTLSKADYEKHKVYACEVTHQGLSSPVTKSFNRGEC
notes: heterodimerized anti-glypican-3 IgG1; alteration in one H chain only; also called He Ab
B2: GpH7-A5/GpH7-B3 variant Q295_11K/GpL16-k0 (antibody, human IgG1, kappa)
heavy 1: not shown
heavy 2: not shown
light: DIVMTQSPLSLPVTPGEPASISCQASESLVHSNRNTYLHWYLQKPGQSPQLLIYKVSNRFSGVPDRFSGSGSGTDFTLKISRVEAEDVGVYYCSQNTHVPPTFGQGTKVEIERTVAAPSVFIFPPSDEQLKSGTASVVCLLNNFYPREAKVQWKVDNALQSGNSQESVTEQDSKDSTYSLSSTLTLSKADYEKHKVYACEVTHQGLSSPVTKSFNRGEC
notes: as for B1
B3: GpH7-A5/GpH7-B3 variant H268_06M/GpL16-k0 (antibody, human IgG1, kappa)
heavy 1: not shown
heavy 2: not shown
light: DIVMTQSPLSLPVTPGEPASISCQASESLVHSNRNTYLHWYLQKPGQSPQLLIYKVSNRFSGVPDRFSGSGSGTDFTLKISRVEAEDVGVYYCSQNTHVPPTFGQGTKVEIERTVAAPSVFIFPPSDEQLKSGTASVVCLLNNFYPREAKVQWKVDNALQSGNSQESVTEQDSKDSTYSLSSTLTLSKADYEKHKVYACEVTHQGLSSPVTKSFNRGEC
notes: as for B1
B4: GpH7-A5/GpH7-B3 variant Q295_01G/GpL16-k0 (antibody, human IgG1, kappa)
heavy 1: not shown
heavy 2: not shown
light: DIVMTQSPLSLPVTPGEPASISCQASESLVHSNRNTYLHWYLQKPGQSPQLLIYKVSNRFSGVPDRFSGSGSGTDFTLKISRVEAEDVGVYYCSQNTHVPPTFGQGTKVEIERTVAAPSVFIFPPSDEQLKSGTASVVCLLNNFYPREAKVQWKVDNALQSGNSQESVTEQDSKDSTYSLSSTLTLSKADYEKHKVYACEVTHQGLSSPVTKSFNRGEC
notes: as for B1
B5: GpH7-A5/GpH7-B3 variant Q295_15Y/GpL16-k0 (antibody, human IgG1, kappa)
heavy 1: not shown
heavy 2: not shown
light: DIVMTQSPLSLPVTPGEPASISCQASESLVHSNRNTYLHWYLQKPGQSPQLLIYKVSNRFSGVPDRFSGSGSGTDFTLKISRVEAEDVGVYYCSQNTHVPPTFGQGTKVEIERTVAAPSVFIFPPSDEQLKSGTASVVCLLNNFYPREAKVQWKVDNALQSGNSQESVTEQDSKDSTYSLSSTLTLSKADYEKHKVYACEVTHQGLSSPVTKSFNRGEC
notes: as for B1
B6: GpH7-A5/GpH7-B3 variant Q295_12R/GpL16-k0 (antibody, human IgG1, kappa)
heavy 1: not shown
heavy 2: not shown
light: DIVMTQSPLSLPVTPGEPASISCQASESLVHSNRNTYLHWYLQKPGQSPQLLIYKVSNRFSGVPDRFSGSGSGTDFTLKISRVEAEDVGVYYCSQNTHVPPTFGQGTKVEIERTVAAPSVFIFPPSDEQLKSGTASVVCLLNNFYPREAKVQWKVDNALQSGNSQESVTEQDSKDSTYSLSSTLTLSKADYEKHKVYACEVTHQGLSSPVTKSFNRGEC
notes: as for B1
B7: GpH7-A5/GpH7-B3 variant H268_08L/GpL16-k0 (antibody, human IgG1, kappa)
heavy 1: not shown
heavy 2: not shown
light: DIVMTQSPLSLPVTPGEPASISCQASESLVHSNRNTYLHWYLQKPGQSPQLLIYKVSNRFSGVPDRFSGSGSGTDFTLKISRVEAEDVGVYYCSQNTHVPPTFGQGTKVEIERTVAAPSVFIFPPSDEQLKSGTASVVCLLNNFYPREAKVQWKVDNALQSGNSQESVTEQDSKDSTYSLSSTLTLSKADYEKHKVYACEVTHQGLSSPVTKSFNRGEC
notes: as for B1
B8: GpH7-A5/GpH7-B3 variant Q295_04F/GpL16-k0 (antibody, human IgG1, kappa)
heavy 1: not shown
heavy 2: not shown
light: DIVMTQSPLSLPVTPGEPASISCQASESLVHSNRNTYLHWYLQKPGQSPQLLIYKVSNRFSGVPDRFSGSGSGTDFTLKISRVEAEDVGVYYCSQNTHVPPTFGQGTKVEIERTVAAPSVFIFPPSDEQLKSGTASVVCLLNNFYPREAKVQWKVDNALQSGNSQESVTEQDSKDSTYSLSSTLTLSKADYEKHKVYACEVTHQGLSSPVTKSFNRGEC
notes: as for B1
B9: GpH7-A5/GpH7-B3 variant Q295_03V/GpL16-k0 (antibody, human IgG1, kappa)
heavy 1: not shown
heavy 2: not shown
light: DIVMTQSPLSLPVTPGEPASISCQASESLVHSNRNTYLHWYLQKPGQSPQLLIYKVSNRFSGVPDRFSGSGSGTDFTLKISRVEAEDVGVYYCSQNTHVPPTFGQGTKVEIERTVAAPSVFIFPPSDEQLKSGTASVVCLLNNFYPREAKVQWKVDNALQSGNSQESVTEQDSKDSTYSLSSTLTLSKADYEKHKVYACEVTHQGLSSPVTKSFNRGEC
notes: as for B1
B10: GpH7-A5/GpH7-B3 variant P271_15Y/GpL16-k0 (antibody, human IgG1, kappa)
heavy 1: not shown
heavy 2: not shown
light: DIVMTQSPLSLPVTPGEPASISCQASESLVHSNRNTYLHWYLQKPGQSPQLLIYKVSNRFSGVPDRFSGSGSGTDFTLKISRVEAEDVGVYYCSQNTHVPPTFGQGTKVEIERTVAAPSVFIFPPSDEQLKSGTASVVCLLNNFYPREAKVQWKVDNALQSGNSQESVTEQDSKDSTYSLSSTLTLSKADYEKHKVYACEVTHQGLSSPVTKSFNRGEC
notes: as for B1
B11: GpH7-A5/GpH7-B3 variant Q295_13S/GpL16-k0 (antibody, human IgG1, kappa)
heavy 1: not shown
heavy 2: not shown
light: DIVMTQSPLSLPVTPGEPASISCQASESLVHSNRNTYLHWYLQKPGQSPQLLIYKVSNRFSGVPDRFSGSGSGTDFTLKISRVEAEDVGVYYCSQNTHVPPTFGQGTKVEIERTVAAPSVFIFPPSDEQLKSGTASVVCLLNNFYPREAKVQWKVDNALQSGNSQESVTEQDSKDSTYSLSSTLTLSKADYEKHKVYACEVTHQGLSSPVTKSFNRGEC
notes: as for B1
B12: GpH7-A5/GpH7-B3 variant Q295_05P/GpL16-k0 (antibody, human IgG1, kappa)
heavy 1: not shown
heavy 2: not shown
light: DIVMTQSPLSLPVTPGEPASISCQASESLVHSNRNTYLHWYLQKPGQSPQLLIYKVSNRFSGVPDRFSGSGSGTDFTLKISRVEAEDVGVYYCSQNTHVPPTFGQGTKVEIERTVAAPSVFIFPPSDEQLKSGTASVVCLLNNFYPREAKVQWKVDNALQSGNSQESVTEQDSKDSTYSLSSTLTLSKADYEKHKVYACEVTHQGLSSPVTKSFNRGEC
notes: as for B1
B13: GpH7-A5/GpH7-B3 variant P271_20W/GpL16-k0 (antibody, human IgG1, kappa)
heavy 1: not shown
heavy 2: not shown
light: DIVMTQSPLSLPVTPGEPASISCQASESLVHSNRNTYLHWYLQKPGQSPQLLIYKVSNRFSGVPDRFSGSGSGTDFTLKISRVEAEDVGVYYCSQNTHVPPTFGQGTKVEIERTVAAPSVFIFPPSDEQLKSGTASVVCLLNNFYPREAKVQWKVDNALQSGNSQESVTEQDSKDSTYSLSSTLTLSKADYEKHKVYACEVTHQGLSSPVTKSFNRGEC
notes: as for B1
B14: GpH7-A5/GpH7-B3 variant P271_04F/GpL16-k0 (antibody, human IgG1, kappa)
heavy 1: not shown
heavy 2: not shown
light: DIVMTQSPLSLPVTPGEPASISCQASESLVHSNRNTYLHWYLQKPGQSPQLLIYKVSNRFSGVPDRFSGSGSGTDFTLKISRVEAEDVGVYYCSQNTHVPPTFGQGTKVEIERTVAAPSVFIFPPSDEQLKSGTASVVCLLNNFYPREAKVQWKVDNALQSGNSQESVTEQDSKDSTYSLSSTLTLSKADYEKHKVYACEVTHQGLSSPVTKSFNRGEC
notes: as for B1
B15: GpH7-A5/GpH7-B3 variant E269_20W/GpL16-k0 (antibody, human IgG1, kappa)
heavy 1: not shown
heavy 2: not shown
light: DIVMTQSPLSLPVTPGEPASISCQASESLVHSNRNTYLHWYLQKPGQSPQLLIYKVSNRFSGVPDRFSGSGSGTDFTLKISRVEAEDVGVYYCSQNTHVPPTFGQGTKVEIERTVAAPSVFIFPPSDEQLKSGTASVVCLLNNFYPREAKVQWKVDNALQSGNSQESVTEQDSKDSTYSLSSTLTLSKADYEKHKVYACEVTHQGLSSPVTKSFNRGEC
notes: as for B1
B16: GpH7-A5/GpH7-B3 variant H268_11K/GpL16-k0 (antibody, human IgG1, kappa)
heavy 1: not shown
heavy 2: not shown
light: DIVMTQSPLSLPVTPGEPASISCQASESLVHSNRNTYLHWYLQKPGQSPQLLIYKVSNRFSGVPDRFSGSGSGTDFTLKISRVEAEDVGVYYCSQNTHVPPTFGQGTKVEIERTVAAPSVFIFPPSDEQLKSGTASVVCLLNNFYPREAKVQWKVDNALQSGNSQESVTEQDSKDSTYSLSSTLTLSKADYEKHKVYACEVTHQGLSSPVTKSFNRGEC
notes: as for B1

Legend:
FcγRIIa R [1] = target: T1, FcγRIIa R; experiment: SPR (Biacore), captured antibody, FcγR as analyte; relative binding, control GpH7-A5/GpH7-B3/GpL16-k0 = 100
Procedure: (§1) The heterodimerized antibodies He Abs in which one of the H chains was introduced with an alteration were assayed for their binding activities to each activating FcγR and inhibitory FcγR according to the method described in Example 4. […] The activating FcγRs in FIGS. 26, 27, 28, and 29 are FcγRIa, FcγRIIa (R), FcγRIIa (H), and FcγRIIIa, respectively.
(§2) Analysis of interaction between objective antibody and the FcγR was carried out using Biacore T100 (GE Healthcare). HBS-EP+ (GE Healthcare) was used as the running buffer, and the measurement temperature was set to 25° C. Chips produced by immobilizing the antigen peptide by the amine coupling method to a Series S Sencor Chip CM5 (GE Healthcare), or alternatively, chips produced by allowing preliminarily biotinylated antigen peptides to interact with and immobilize onto a Series S Sensor Chip SA (certified) (GE Healthcare) were used. Antibodies of interest were captured onto an antigen peptide-immobilized chip, and allowed to interact to each FcγR diluted with running buffer. To regenerate and repeatedly use the chip, the antibodies captured on the chip were washed off by reacting 10 mM glycine-HCl, pH 1.5.

FcγRIIb = target: T2, FcγRIIb; experiment: as above
Procedure: as §1, §2

FcγRIIa R [2] = target: T1, FcγRIIa R; experiment: SPR (Biacore); He/Con_2aR divided by He/Con_2b (FcγRIIa R over FcγRIIb)

Row | Binder | He/Con_2aR (FcγRIIa R [1]) | He/Con_2b (FcγRIIb) | He_2aR/2b (IIaR/IIb) (FcγRIIa R [2])
1 | B1 | 57.8 control = 100 | 44.3 control = 100 | 1.31 ratio
2 | B2 | 88.9 control = 100 | 70.4 control = 100 | 1.26 ratio
3 | B3 | 81 control = 100 | 65.7 control = 100 | 1.23 ratio
4 | B4 | 60.9 control = 100 | 46 control = 100 | 1.32 ratio
5 | B5 | 82.8 control = 100 | 65.4 control = 100 | 1.27 ratio
6 | B6 | 83 control = 100 | 65.2 control = 100 | 1.27 ratio
7 | B7 | 85 control = 100 | 67.8 control = 100 | 1.25 ratio
8 | B8 | 83.6 control = 100 | 64.7 control = 100 | 1.29 ratio
9 | B9 | 91.2 control = 100 | 75.7 control = 100 | 1.2 ratio
10 | B10 | 70.7 control = 100 | 52.3 control = 100 | 1.35 ratio
11 | B11 | 73.7 control = 100 | 56.9 control = 100 | 1.3 ratio
12 | B12 | 87.4 control = 100 | 67.5 control = 100 | 1.3 ratio
13 | B13 | 77.3 control = 100 | 58.1 control = 100 | 1.33 ratio
14 | B14 | 75.9 control = 100 | 59.5 control = 100 | 1.28 ratio
15 | B15 | 55.5 control = 100 | 42.5 control = 100 | 1.3 ratio
16 | B16 | 100 control = 100 | 83 control = 100 | 1.21 ratio
